Results from US20190300577A1.

Key:
[1] = molecular target: recombinant human P-selectin Fc chimera (human) (UniProt P16109); experiment: comparator value given with the Biacore results; method not stated
[2] = molecular target: recombinant human P-selectin Fc chimera (human) (UniProt P16109); experiment: flow cytometry; inhibition of human P-selectin Fc chimera binding to human peripheral blood PMN
[3] = molecular target: recombinant mouse P-selectin Fc chimera (mouse) (UniProt Q01102); experiment: flow cytometry; inhibition of mouse P-selectin Fc chimera (2 µg/mL) binding to murine PMN
selectins on endothelium = experiment: cell-based or functional assay
[4] = molecular target: recombinant human P-selectin Fc chimera (human) (UniProt P16109); experiment: flow cytometry; inhibition of human P-selectin Fc chimera binding to human peripheral blood monocytes
[5] = molecular target: recombinant human L-selectin Fc chimera (human) (UniProt P14151); experiment: flow cytometry; inhibition of human L-selectin Fc chimera binding to human U-937 cells
[6] = molecular target: recombinant human P-selectin Fc chimera (human) (UniProt P16109); experiment: flow cytometry; inhibition of human P-selectin Fc chimera binding to human U-937 cells
[7] = molecular target: recombinant human P-selectin Fc chimera (human) (UniProt P16109); experiment: Biacore; biotinylated glycopeptide on streptavidin chip, P-sel-Ig flowed
[8] = molecular target: recombinant mouse P-selectin Fc chimera (mouse) (UniProt Q01102); experiment: as above
[9] = molecular target: recombinant human P-selectin Fc chimera (human) (UniProt P16109); experiment: Biacore; biotinylated glycopeptide on streptavidin chip, P-sel-Ig (2.5 to 60 µg/mL) flowed
[10] = molecular target: recombinant mouse P-selectin Fc chimera (mouse) (UniProt Q01102); experiment: Biacore; biotinylated glycopeptide captured on a streptavidin chip, mP-sel-Ig flowed over (trace shown at 20 µg/ml) [lower middle panel 'mP-sel-Ig (20 µg/ml)' (E in the legend]
[11] = molecular target: recombinant mouse L-selectin Fc chimera (mouse) (UniProt P18337); experiment: flow cytometry; inhibition of mouse L-selectin Fc chimera binding to murine neutrophils
Chain of recombinant mouse L-selectin Fc chimera (mouse) (P18337 39-332, change not shown): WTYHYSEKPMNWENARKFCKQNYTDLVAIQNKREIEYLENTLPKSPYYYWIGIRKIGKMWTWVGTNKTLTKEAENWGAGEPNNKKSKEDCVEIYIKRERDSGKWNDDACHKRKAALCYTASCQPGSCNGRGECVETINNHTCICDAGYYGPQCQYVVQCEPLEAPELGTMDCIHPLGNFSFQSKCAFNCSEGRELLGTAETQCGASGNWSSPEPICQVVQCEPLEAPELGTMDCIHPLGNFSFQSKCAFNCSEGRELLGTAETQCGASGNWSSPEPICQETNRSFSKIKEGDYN

Chain of recombinant mouse P-selectin Fc chimera (mouse) (Q01102 42-709, stated change not applied): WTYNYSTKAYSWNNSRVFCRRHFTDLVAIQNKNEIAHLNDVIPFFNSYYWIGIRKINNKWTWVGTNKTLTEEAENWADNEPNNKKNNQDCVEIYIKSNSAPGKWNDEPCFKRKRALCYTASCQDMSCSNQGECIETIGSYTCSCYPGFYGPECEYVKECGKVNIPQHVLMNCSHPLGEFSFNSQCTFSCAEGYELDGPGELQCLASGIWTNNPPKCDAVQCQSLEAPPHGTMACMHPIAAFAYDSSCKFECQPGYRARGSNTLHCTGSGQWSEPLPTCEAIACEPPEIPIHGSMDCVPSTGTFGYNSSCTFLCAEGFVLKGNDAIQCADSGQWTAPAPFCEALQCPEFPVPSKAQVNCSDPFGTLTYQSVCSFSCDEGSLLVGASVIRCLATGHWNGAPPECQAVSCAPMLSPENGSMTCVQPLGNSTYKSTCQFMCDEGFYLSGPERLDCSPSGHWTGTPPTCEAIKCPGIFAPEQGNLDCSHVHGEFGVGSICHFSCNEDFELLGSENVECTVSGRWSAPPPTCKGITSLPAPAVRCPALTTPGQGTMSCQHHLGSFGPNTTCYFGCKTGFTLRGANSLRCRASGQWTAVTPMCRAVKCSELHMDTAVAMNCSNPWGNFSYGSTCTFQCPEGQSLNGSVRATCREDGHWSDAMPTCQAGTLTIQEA
Chain of recombinant human P-selectin Fc chimera (human) (P16109 42-771, change not shown): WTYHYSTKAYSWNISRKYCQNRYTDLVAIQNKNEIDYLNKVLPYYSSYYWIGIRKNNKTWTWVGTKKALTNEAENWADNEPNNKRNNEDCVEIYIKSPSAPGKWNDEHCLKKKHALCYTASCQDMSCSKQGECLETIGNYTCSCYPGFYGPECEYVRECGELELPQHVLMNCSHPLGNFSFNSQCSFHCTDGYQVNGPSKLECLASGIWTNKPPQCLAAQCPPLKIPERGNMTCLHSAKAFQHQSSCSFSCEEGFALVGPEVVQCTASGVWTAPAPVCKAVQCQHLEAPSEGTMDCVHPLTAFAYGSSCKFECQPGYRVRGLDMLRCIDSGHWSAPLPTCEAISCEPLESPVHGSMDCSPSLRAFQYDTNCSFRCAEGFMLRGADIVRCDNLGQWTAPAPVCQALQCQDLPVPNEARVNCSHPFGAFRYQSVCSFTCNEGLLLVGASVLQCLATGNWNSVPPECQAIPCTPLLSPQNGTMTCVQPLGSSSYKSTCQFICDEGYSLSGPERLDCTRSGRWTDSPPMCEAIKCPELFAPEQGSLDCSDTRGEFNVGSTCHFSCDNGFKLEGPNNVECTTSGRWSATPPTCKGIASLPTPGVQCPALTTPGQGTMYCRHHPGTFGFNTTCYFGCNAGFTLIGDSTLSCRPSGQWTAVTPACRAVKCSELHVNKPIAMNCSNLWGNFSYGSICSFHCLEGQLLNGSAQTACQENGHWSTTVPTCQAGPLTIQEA
Chain of recombinant human L-selectin Fc chimera (human) (P14151 39-332, change not shown): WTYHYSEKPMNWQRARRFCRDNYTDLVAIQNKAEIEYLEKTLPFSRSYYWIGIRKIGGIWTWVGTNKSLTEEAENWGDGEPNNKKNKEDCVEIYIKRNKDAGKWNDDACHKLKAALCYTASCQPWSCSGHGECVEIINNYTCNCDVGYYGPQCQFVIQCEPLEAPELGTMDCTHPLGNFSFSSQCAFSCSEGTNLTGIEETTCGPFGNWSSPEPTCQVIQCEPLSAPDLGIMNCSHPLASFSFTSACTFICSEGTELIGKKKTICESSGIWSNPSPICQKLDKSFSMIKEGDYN

Kd [1] [µM] | IC50 [2] [µM] | IC50 [3] [µM] | mean leukocyte rolling velocity (intravital microscopy, murine cremaster venules, GSnP-6 IV) (selectins on endothelium) [µm/s] | IC50 [4] [µM] | IC50 [5] [µM] | IC50 [6] [µM] | kon [7] [M⁻¹ s⁻¹] | fold difference of Kd against human P-selectin [8] [fold] | kon [8] [M⁻¹ s⁻¹] | Kd [9] [µM] | Kd [10] [µM] | IC50 [11] [µM] | Substance
0.073 |  |  |  |  |  |  |  |  |  |  |  |  | native PSGL-1 (from UniProt Q14242 42-412) (ligand)
 | 30 | 15 | 74.9 | 30 | 30 | 8 | 310000 | 9 | 49000 | 0.022 | 0.186 | > 50 | GSnP-6 (peptide)
